Measured values from patent US20080058263A1 (published 2008).
Residue numbers refer to the chain shown, from its start.

B1: 44-9 (ligand)
chain: AHYNTEILKFMDVYQRSYCHPREVCIDVGKEFGVATNTFFKPSCVPLMRCGGCCNDEGLECVPTEESNITMQIMRITVPLSQGPKPVTISFLQHNKCECRPKKD
B2: 44-10 (ligand)
chain: AHYNTEILKFMDVYQRSYCHPREVCIDVGKEFGVATNTFFKPSCVPLMRCGGCCNDEGLECMNTSTSYLSKTLFEITVPLSQGPKPVTISFLQHNKCECRPKKD
B3: 44-11 (ligand)
chain: B1 chain with D56S, E60Q
B4: 44-12 (ligand)
chain: B2 chain with D56S, E60Q
B5: 44-13 (ligand)
chain: B1 chain with L92A, Q93N, N95T, K96S, E98R, R100M, P101S, K103L
B6: 44-15 (ligand)
chain: B1 chain with D56S, E60Q, L92A, Q93N, N95T, K96S, E98R, R100M, P101S, K103L
B7: 44-16 (ligand)
chain: B2 chain with D56S, E60Q, L92A, Q93N, N95T, K96S, E98R, R100M, P101S, K103L
B8: 54-1 (ligand)
chain: AHYNTEILKSIDNEWRKTQCMPIETLVDIFQEFGVATNTFFKPSCVPLMRCGGCCNDEGLECVPTEESNITMQIMRIKPHQGQHIGEMSFLQHNKCECRPKKD
B9: 54-3 (ligand)
chain: B8 chain with D57S, E61Q
B10: 54-9 (ligand)
chain: AHYNTEILKSIDNEWRKTQCMPIETLVDIFQEFGVATNTFFKPSCVPLMRCGGCCNDEGLECVPTEESNITMQIMRITVPLSQGPKPVTISFLQHNKCECRPKKD
B11: 54-10 (ligand)
chain: AHYNTEILKSIDNEWRKTQCMPIETLVDIFQEFGVATNTFFKPSCVPLMRCGGCCNDEGLECMNTSTSYLSKTLFEITVPLSQGPKPVTISFLQHNKCECRPKKD
B12: 54-11 (ligand)
chain: B10 chain with D57S, E61Q
B13: 54-13 (ligand)
chain: B10 chain with L93A, Q94N, N96T, K97S, E99R, R101M, P102S, K104L
B14: 54-15 (ligand)
chain: B10 chain with D57S, E61Q, L93A, Q94N, N96T, K97S, E99R, R101M, P102S, K104L
B15: 64-1 (ligand)
chain: GQNHHEVVKFMDVYQRSYCHPREVCIDVGKEFGVATNTFFKPSCVPLMRCGGCCNDEGLECVPTEESNITMQIMRIKPHQGQHIGEMSFLQHNKCECRPKKD
B16: 64-2 (ligand)
chain: GQNHHEVVKFMDVYQRSYCHPREVCIDVGKEFGVATNTFFKPSCVPLMRCGGCCNDEGLECMNTSTSYLSKTLFEIKPHQGQHIGEMSFLQHNKCECRPKKD
B17: 64-3 (ligand)
chain: B15 chain with D56S, E60Q
B18: 64-4 (ligand)
chain: B16 chain with D56S, E60Q
B19: 64-5 (ligand)
chain: B15 chain with L90A, Q91N, N93T, K94S, E96R, R98M, P99S, K101L
B20: 64-6 (ligand)
chain: B16 chain with L90A, Q91N, N93T, K94S, E96R, R98M, P99S, K101L
B21: 64-7 (ligand)
chain: B15 chain with D56S, E60Q, L90A, Q91N, N93T, K94S, E96R, R98M, P99S, K101L
B22: 64-9 (ligand)
chain: B1 chain with A1G, H2Q, Y3N, N4H, T5H, I7V, L8V
B23: 64-11 (ligand)
chain: B1 chain with A1G, H2Q, Y3N, N4H, T5H, I7V, L8V, D56S, E60Q
B24: 64-12 (ligand)
chain: B2 chain with A1G, H2Q, Y3N, N4H, T5H, I7V, L8V, D56S, E60Q
B25: 83-6 (ligand)
chain: AHYNTEILKFMDVYQRSYCHPIETLVDIFQEYPDEIEYIFKPPCVSVYRCGGCCNDEGLECMNTSTSYLSKTLFEIKPHQGQHIGEMSFANHTSCRCMSKLD
B26: 24-2 (ligand)
chain: AHYNTEILKSIDNEWRKTQCMPREVCIDVGKEFGVATNTFFKPSCVPLMRCGGCCNDEGLECMNTSTSYLSKTLFEIKPHQGQHIGEMSFLQHNKCECRPKKD
B27: 24-4 (ligand)
chain: B26 chain with D57S, E61Q

These binders were tested against T1, VEGFR-2-Fc (UniProt P35968 20-322) (assay: receptor-Fc IP).
T1 construct: domain: first 3 Ig domains; conditioned supernatant of 293T cells; also called VEGFR-2-Fc fusion protein; not shown: Fc fragment of the pIg vector
In short: (§1)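 Binding of ligand from sample supernatant measured by pentahistidine-antibody immunoprecipitation. IP mix: PBS with 1.5% BSA, 0.06% Tween 20, 3 μg/ml heparin and 400 ng/ml fusion protein, added 1:2 to sample supernatant.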

T1 sequence (P35968 20-322): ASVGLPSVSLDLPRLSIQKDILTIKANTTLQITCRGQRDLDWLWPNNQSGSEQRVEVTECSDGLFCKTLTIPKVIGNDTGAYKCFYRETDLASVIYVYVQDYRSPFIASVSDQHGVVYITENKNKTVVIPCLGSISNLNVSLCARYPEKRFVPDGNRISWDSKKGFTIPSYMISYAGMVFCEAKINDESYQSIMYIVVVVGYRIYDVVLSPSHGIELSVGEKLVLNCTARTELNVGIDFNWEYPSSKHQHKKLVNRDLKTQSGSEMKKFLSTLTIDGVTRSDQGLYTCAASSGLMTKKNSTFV

Binder	binding result
B1	no binding
B2	no binding
B3	no binding
B4	no binding
B5	no binding
B6	no binding
B7	no binding
B8	no binding
B9	no binding
B10	no binding
B11	no binding
B12	no binding
B13	no binding
B14	no binding
B15	no binding
B16	no binding
B17	no binding
B18	no binding
B19	no binding
B20	no binding
B21	no binding
B22	no binding
B23	no binding
B24	no binding
B25	no binding
B26	no binding
B27	no binding

The binders below were run against T2, VEGFR-1-Fc (UniProt P17948 27-338) (assay: receptor-Fc IP).
T2 construct: domain: first three Ig domains; expressed in Drosophila S2 cells, purified on Protein A sepharose; also called VEGFR-1-Fc fusion protein; not shown: Fc fragment from the Signal-pIgPlus vector
In short: as §1

T2 sequence (P17948 27-338): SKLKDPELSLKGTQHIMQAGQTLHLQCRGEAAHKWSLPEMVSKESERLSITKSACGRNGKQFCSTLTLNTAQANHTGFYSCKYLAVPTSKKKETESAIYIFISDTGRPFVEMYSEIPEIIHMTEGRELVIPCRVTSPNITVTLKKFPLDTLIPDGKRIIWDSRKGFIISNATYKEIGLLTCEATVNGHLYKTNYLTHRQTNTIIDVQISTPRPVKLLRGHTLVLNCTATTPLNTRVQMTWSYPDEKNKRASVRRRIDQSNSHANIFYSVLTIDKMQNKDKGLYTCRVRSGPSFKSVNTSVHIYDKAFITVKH

Binder	binding result
B1	no binding
B2	no binding
B3	no binding
B4	no binding
B5	no binding
B6	no binding
B7	no binding
B8	no binding
B9	no binding
B10	no binding
B11	no binding
B12	no binding
B13	no binding
B14	no binding
B15	no binding
B16	no binding
B17	no binding
B18	no binding
B19	no binding
B20	no binding
B21	no binding
B22	no binding
B23	no binding
B24	no binding
B25	no binding
B26	no binding
B27	no binding

Each binder was assayed against T3, VEGFR-3-Fc (UniProt P35916 25-328) (assay: receptor-Fc IP).
T3 construct: domain: first three Ig domains; conditioned supernatant of 293T cells; also called VEGFR-3-Fc fusion protein; not shown: Fc fragment of the pIg vector
T3 sequence (looked up): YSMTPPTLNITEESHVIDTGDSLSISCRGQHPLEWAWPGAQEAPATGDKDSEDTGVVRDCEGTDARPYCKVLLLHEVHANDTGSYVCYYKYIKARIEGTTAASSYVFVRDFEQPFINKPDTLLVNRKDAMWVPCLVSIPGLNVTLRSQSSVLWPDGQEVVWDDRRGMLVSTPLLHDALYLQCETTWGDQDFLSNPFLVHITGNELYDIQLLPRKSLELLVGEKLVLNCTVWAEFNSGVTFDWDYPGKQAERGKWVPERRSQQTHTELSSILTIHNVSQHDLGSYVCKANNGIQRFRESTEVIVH
In short: as §1

Binder	binding result
B1	no binding
B2	no binding
B3	no binding
B4	no binding
B5	no binding
B6	no binding
B7	no binding
B8	no binding
B9	no binding
B10	no binding
B11	no binding
B12	no binding
B13	no binding
B14	no binding
B15	no binding
B16	no binding
B17	no binding
B18	no binding
B19	no binding
B20	no binding
B21	no binding
B22	no binding
B23	no binding
B24	no binding
B25	no binding
B26	no binding
B27	no binding
